In article PMC5148205:

Molecular target: T1, H-NS (Shewanella oneidensis MR-1) (UniProt Q8ECJ6)
T1 sequence: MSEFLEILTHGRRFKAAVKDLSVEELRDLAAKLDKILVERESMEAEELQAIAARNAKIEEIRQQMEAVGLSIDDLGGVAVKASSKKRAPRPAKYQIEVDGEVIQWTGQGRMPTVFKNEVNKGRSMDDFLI
Experiment: EMSA
Conditions: H-NS incubated with biotin-labelled probe with or without unlabelled probe, 1 h at different temperatures; binding buffer not stated (refers to Liu et al. 2015)

Row | Sequence | binding
1 | TAGCGATGAAATGGCTTTTTGGGTGGCGGTTTATCGTGATTAACGCAGAAGGTGAAGCGTGGTACATCGATGTTAAACCTGATGCCAAAGTAAAACCTGTTGGTAAAAATAAGGACGGTGCATAATGTTTCAGCAAGAAATAGAAGCTATGCAGGGTAAAGTGGTGCAGCAG (double strand) [PSO_3012 (LambdaSo excisionase promoter)] | no binding
2 | GATTTTCTAGTGACAGAAGGTTTTAGCGTTGATAATGCCAAATATGCTGAATTATTTTTGAGACCGAGTAAATTTCTTAGGGGACCAAAAAAACGCATATAATACAATGGATAATGCAATTTAGGTGAGCAAAGGGGACCGTTTTTACCCCGTTTATTCATGCTTCATAACCATCTAATCTCAGGGTTGTAGACGTTTATTCACAACTCTGAGGACGATTATGAACACAACTCTCAC (double strand) [PalpA (alpA promoter)] | binds
